This data set concerns the target T1, AdpA (His-tagged) (Streptomyces coelicolor M145) (UniProt Q9L062).
T1 sequence: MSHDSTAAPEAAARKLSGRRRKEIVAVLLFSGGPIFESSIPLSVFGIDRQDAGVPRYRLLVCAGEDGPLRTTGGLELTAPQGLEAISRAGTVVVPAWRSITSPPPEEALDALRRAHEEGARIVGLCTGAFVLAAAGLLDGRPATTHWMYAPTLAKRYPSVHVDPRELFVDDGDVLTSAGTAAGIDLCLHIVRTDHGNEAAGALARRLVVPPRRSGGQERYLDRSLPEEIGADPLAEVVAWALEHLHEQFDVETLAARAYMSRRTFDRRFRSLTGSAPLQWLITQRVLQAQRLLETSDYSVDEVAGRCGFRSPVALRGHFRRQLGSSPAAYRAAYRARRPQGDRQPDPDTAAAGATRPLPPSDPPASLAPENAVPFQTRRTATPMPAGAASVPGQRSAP
In words: EMSA. The settings on record: EMSA: 20 mM Tris-HCl pH 8.0, 2 mM EDTA, 20 mM KCl, 0.5 mM DTT, 4% Ficoll-400, 2 µg poly(dI-dC), room temperature, 25 min; 20 nM probe. In general terms: A gel shift assay detects complexes by their altered migration in electrophoresis.

Turning to “GCGGCAGATCAGGACCCTCCAGGACTTCGGGTTCGACCTGGAGGAGACCCGCCCCTTCGTGGAGTGCCTGCGCGCCGGGCACCCGGAGGGCGACTCCTGTCCGGCGTCCCTCGTGGTCTACCGGCGCAAGCTGGCCGAGCTGGACACGCTGATCGAGCAGCTCACGTCGGTGCGCGCGCAGGTCGCCGCACAGCTGACGCGGGCCGAGGCGGCGGCTCCGGGGGGTCCGGAGCCCAAGTGCGAACTGGGAGGACACGGATGAAGACCAGCGGGGTGCCCGAGGTGACGGACGCGGACTT (double strand) [trxA2 (sco5438) promoter probe]”, the binding result is “binds”.

For “TCATGGGCGCGCGTCCTGCGCACGCCGCCGGTTCGGTACTCCGAAGGTGCAGCGTCCGCGGAGCCGCGGAGATTCCCGCCCACCGTCGCATTTCGGCCACGCGAGGGCCCGGCGAGTGATGAGGATCTCGCCGCACACGGGCACCAAGGCTGGTA (double strand) [trxA5 (sco1084) promoter probe]”, the binding entry is recorded as “binds”.

(Values after publication PMC9952706.)
